Here are results for 3 molecules from patent publication US20240287161A1 (NATIONAL UNIVERSITY CORPORATION TOTTORI UNIVERSITY, published 2024).

Assay [1] has as its target T1, MERS-CoV trimeric S protein (amino acids 13-1296) with T4 foldon, histidine tag and strep-tag (MERS-CoV, UniProt K9N5Q8 16-1293). Briefly: ELISA on coated S-trimeric antigen, anti-human IgG-HRP [Human IgG1, NT-108].
Assay [2] deals with T1, MERS-CoV trimeric S protein (amino …). The assay is described as follows: ELISA on coated S-trimeric antigen, anti-human IgG-HRP [Human IgG1, NT-193].
The target is the same in assay [3]. Briefly: ELISA on coated S-trimeric antigen, anti-human IgG-HRP [Human IgG3, NT-193].

B1: NT-108 (recombinant human IgG1/kappa antibody) (antibody, V domains shown)
VH: EVQLQQSGPGLVKPSQTLSLTCSISGDSVSSNSAAWNWIRQSPSRGLEWLGRTYYRSKWYNDYAGTVKSRIAINPDTSKNQFSLHLNSVTPEDTAVYFCARVISVAGYAFDIWGQGTMVTVSS
VL: EIVLTQSPGTLSLSPGERATLSCRASQSVSSTFLAWYQQKPGQAPRLLIYGASYMATGIPDRFSGSGSGTDFTLTISRLEPEDFAVYYCQQYGSSLTFGGGTKLEIK
B1: the binding result in assay [1] is “no binding (tested: 1000 ng/ml)”.

B2: NT-193 (recombinant human IgG1/kappa antibody) (antibody, V domains shown)
VH: EVQLQQWGAGLLKPSETLSLTCAVYGGSFSGYYWSWIRQPPGKGLEWIGEINHSGSTNYNPSLKSRVTISVDTSKNQFSLKLSSVTAADTAVYYCARGWDLDYYYGMDVWGQGTTVTVSS
VL: DIRMTQSPSAMSASVGDRVTVTCRASQGIGNYLAWFQLKPGKVPKRLIYAASSLQSGVPARFSGGGSGTEFTLTISSLQPEDFATYYCLQHGFLPWTFGQGTKLEIK
As for B2, the binding result in assay [2] is listed as “no binding (tested: 1000 ng/ml)”.

B3: NT-193, human IgG3 subclass (antibody, V domains shown)
VH: B2 VH
VL: B2 VL
For the molecule B3, the binding result in assay [3] was “no binding (tested: 1000 ng/ml)”.
